Measured values from PMC4945142 (Molecular Biology of the Cell, 2016).
Values joined by “and” are separate entries in the source; they are usually repeats but may differ in a detail not shown here. Equal values may be shown once. Blank lines part the entries; values can stand above or below the molecule they belong to.

Tests used:
[1] = target: E. coli-expressed GST-Spc110p^1-220 (budding yeast) (UniProt P32380); assay: SEC-MALS
[2] = target: γ-tubulin small complex (γTuSC) with γ-tubulin^S48C/S153C, Spc97-YFP and Spc98-CFP (budding yeast) (UniProt P53378); assay: FRET or BRET
SEC-MALS = target: the molecule itself; assay: SEC-MALS

- stoichiometry N [1]: 2 and 4
Molecule: E. coli-expressed GST-Spc110p^1-220 (from UniProt P32380 1-220) (domain or fragment)

Molecule: Spc110p^1-220 tetramer (Spc110p^1-220 fused with the tetramer-forming mutant coiled-coil domain of GCN4, GCN4-LI) (from UniProt P32380 1-220)
- Kd [2]: 4 nM
- Kd2 (Spc110p tetramer with a single γTuSC) [2]: 43 nM
- Kd3 (a second γTuSC binding to the complex of Spc110p tetramer and one γTuSC) [2]: 3 nM

B1: Untagged Spc110p^1-220 (domain or fragment, budding yeast, UniProt P32380 1-220, looked up)
chain: MDEASHLPNGSLKNMEFTPVGFIKSKRNTTQTQVVSPTKVPNANNGDENEGPVKKRQRRSIDDTIDSTRLFSEASQFDDSFPEIKANIPPSPRSGNVDKSRKRNLIDDLKKDVPMSQPLKEQEVREHQMKKERFDRALESKLLGKRHITYANSDISNKELYINEIKSLKHEIKELRKEKNDTLNNYDTLEEETDDLKNRLQALEKELDAKNKIVNSRKVD
- stoichiometry N (SEC-MALS): 2
